Test results as given in US20040014209A1, “Compositions and methods for modulating cell differentiation” (priority 2002, published 2004).

B1: Wnt-1: delivered by Rat-1 cells stably overexpressing Wnt-1 (protein, UniProt P04426 28-370, looked up)
Proto-oncogene Wnt-1: ANSSGRWWGIVNIASSTNLLTDSKSLQLVLEPSLQLLSRKQRRLIRQNPGILHSVSGGLQSAVRECKWQFRNRRWNCPTAPGPHLFGKIVNRGCRETAFIFAITSAGVTHSVARSCSEGSIESCTCDYRRRGPGGPDWHWGGCSDNIDFGRLFGREFVDSGEKGRDLRFLMNLHNNEAGRTTVFSEMRQECKCHGMSGSCTVRTCWMRLPTLRAVGDVLRDRFDGASRVLYGNRGSNRASRAELLRLEPEDPAHKPPSPHDLVYFEKSPNFCTYSGRLGTAGTAGRACNSSSPALDGCELLCCGRGHRTRTQRVTERCNCTFHWCCHVSCRNCTHTRVLHECL

Legend:
SP cells = experiment: FACS of Hoechst 33342 treated quail SP cells; type: cell-based; conditions: negative control in FACS sorting
Experimental: SP cells were isolated from quail by FACS isolation relying on Hoechst 33342 and propidium iodide to distinguish different cell populations. Cells were incubated in Hoechst 33342 at 37° C. for 60-90 minutes. Cells were then collected by centrifugation, washed in PBS and resuspended in a propidium iodide solution. As a negative control, a fraction of the primary cells were incubated in parallel with verapamil, which blocks Hoechst 33342 efflux. Sorting was performed on a FACS Advantage Plus flow cytometer and fluorescence of Hoechst 33342 and propidium iodide was measured on a linear scale (Goodell et al. (1996) J. Exp. Med. 183:1797; Goodell et al. (1997) Nat. Med. 3:1337 and Gussoni et al. (1999) Nature 401:390). The cells were then pelleted by centrifugation.

[1] = tested on: presumptive heart field of chick embryos; experiment: Implantation of Wnt-expressing cell pellets into the precardiac region of embryos in New culture; type: in vivo; conditions: cell pellets implanted at stage 3+ to 4; in situ hybridization
From the text: FIG. 15. Overexpression of Wnt genes blocks cardiogenesis in precardiac mesoderm. (A) Whole-mount in situ hybridization for Nkx-2.5 in chick embryos in which pellets of chick embryo dermal fibroblasts infected with either RCAS-mWnt-3a or control RCAS-AP were implanted into the precardiac region of embryos in New culture at stage 3^+ to 4. […] (B) Red line in A indicates the level of this section. […] (C) Ectopic Wnt expression suppresses cardiogenesis in anterior lateral plate mesoderm explants. Stage 5 anterior lateral plate mesoderm from the precardiac region was infected with either control virus (RCAS-GFP, lane 1; RCAS-AP, lane 3), or RCAS-Wnt-3a (lane 2) or RCAS-Wnt-8c (lane 4). Cultures were carried out in the presence of 200 ng/mL BMP-4 overnight followed by 48 h in 20 ng/mL BMP-4. Transcript levels were evaluated by RT-PCR.
As inhibition of Wnt signaling can induce cardiogenesis in the PLP mesoderm, we hypothesized that expression of Wnt signals in the heart field would have the opposite effect. To address this issue, we examined whether ectopic expression of Wnt-3a in the presumptive heart field affects the expression of Nkx-2.5 in vivo. […] However, these in vivo experiments affected all three germ layers. […]

APMEE explants = experiment: APMEE explant culture, cardiac gene expression by RT-PCR; type: cell-based, chick; conditions: stage 9 APMEE explants; RCAS-Wnt-3a infection (n=24) or coculture with Rat-1/Wnt-1-HA cells (n=12)
stage 7 chick embryos = experiment: Cell pellet implantation into stage 7 chick embryos in New culture (heart looping, DiI tracing, in situ hybridization); type: in vivo; conditions: fibroblasts expressing Wnt-1 implanted into one side of heart-forming region, stage 7

Row | Molecule | Hoechst 33342 dye retention of SP cells (SP cells) | Nkx-2.5 expression in the presumptive heart field [1] | APMEE explants in which cardiogenesis was blocked (APMEE explants) [%] | Nkx-2.5 expression in heart-forming region (stage 7 chick embryos)
1 | COc1ccc(CCN(C)CCCC(C#N)(c2ccc(OC)c(OC)c2)C(C)C)cc1OC (stereo not shown) [verapamil] | blocks the channel(s) responsible for low dye retention | – | – | –
2 | B1 | – | similarly extinguished endogenous Nkx-2.5 expression | 50 | blocked subsequent expression of Nkx-2.5
